Experimental data from publication PMC13140710, “Small heat shock proteins HspB1 and HspB5 differentially alter the condensation and aggregation of the TDP‐43 low‐complexity domain” (Protein Science : A Publication of the Protein Society, 2026).

B1: HspB5^ACD (core α‐crystallin domain of HspB5, residues 68–162) (domain or fragment, human, UniProt P02511 68-162, looked up)
chain: MRLEKDRFSVNLDVKHFSPEELKVKVLGDVIEVHGKHEERQDEHGFISREFHRKYRIPADVDPLTITSSLSSDGVLTVNGPRKQVSGPERTIPIT
modifications: Alexa Fluor 647 (NHS ester) label in TCCD and in the condensate partitioning experiment
notes: Small heat shock protein HspB5 (αB-crystallin), α-crystallin domain, residues 68-162; pET28 vector, gift of A. Laganowsky (Laganowsky et al., 2010); also called core domain of HspB5; source: E. coli BL21(DE3), purified
B2: TDP‐43 low‐complexity domain (TDP‐43^LCD), amino acids 267–414 of TDP‐43 (domain or fragment, UniProt Q13148 267-414, looked up)
chain: NRQLERSGRFGGNPGGFGNQGGFGNSRGGGAGLGNNQGSNMGGGMNFGAFSINPAMMAAAQAALQSSWGMMGMLASQQNQSGPSGNNQNQGNMQREPNQAFGSGNNSYSGSNSGAAIGWGSASNAGSGSGFNGGFGSSMDSKSSGWGM
modifications: Cy5 (mono NHS ester) label in TCCD and, at 1% of the protein, in FRAP; unlabelled in the other assays
notes: source: E. coli BL21(DE3), purified from inclusion bodies (HisTrap in 8 M urea), buffer exchanged into 20 mM MES pH 6.0

Experiments:
[1] = target: B2; assay: two-color coincidence detection (TCCD), confocal single-molecule fluorescence; fluorescently labelled TDP-43^LCD and labelled sHsp, diluted to 200 nM in 20 mM MES pH 6.0, 25°C, both in solution; peaks found in both channels within 10 ms counted as coincident (hetero-oligomers); details: both partners purified
[2] = target: T1, HspB5^WT (wild-type human HspB5, αB‐crystallin) (human, UniProt P02511 1-175, Alexa Fluor 647 (NHS ester) label in TCCD and in the condensate partitioning experiment; unlabelled in the other assays); assay: as above; details: both partners purified
T1 construct: Small heat shock protein HspB5 (αB-crystallin), human, wild type, full-length isoform; Vector pET3a or pET24a; source: E. coli BL21(DE3), purified
T1 sequence (looked up): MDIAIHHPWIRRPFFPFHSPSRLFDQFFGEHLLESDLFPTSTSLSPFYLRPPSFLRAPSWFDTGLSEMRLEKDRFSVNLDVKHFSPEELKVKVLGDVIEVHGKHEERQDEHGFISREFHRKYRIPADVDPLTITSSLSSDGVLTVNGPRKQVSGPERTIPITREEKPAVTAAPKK

Binder | binding result [1] | binding result [2]
B1 | binds | 
B2 |  | binds
